Values of other authors, collected in paper PMC5742237.
Like-named read-outs stand apart in the source and are kept apart here.

Legend:
[1] = target: Transhydrogenase domain I dimer domain I (Rhodospirillum rubrum) (UniProt Q2RSB2)
[2] = target: Transhydrogenase domain I dimer domain I (Rhodospirillum rubrum) (UniProt Q2RSB2); remark: listed apart in the source

Chain of UniProt Q2RSB2 (Q2RSB2 whole entry, the tested form may be a part): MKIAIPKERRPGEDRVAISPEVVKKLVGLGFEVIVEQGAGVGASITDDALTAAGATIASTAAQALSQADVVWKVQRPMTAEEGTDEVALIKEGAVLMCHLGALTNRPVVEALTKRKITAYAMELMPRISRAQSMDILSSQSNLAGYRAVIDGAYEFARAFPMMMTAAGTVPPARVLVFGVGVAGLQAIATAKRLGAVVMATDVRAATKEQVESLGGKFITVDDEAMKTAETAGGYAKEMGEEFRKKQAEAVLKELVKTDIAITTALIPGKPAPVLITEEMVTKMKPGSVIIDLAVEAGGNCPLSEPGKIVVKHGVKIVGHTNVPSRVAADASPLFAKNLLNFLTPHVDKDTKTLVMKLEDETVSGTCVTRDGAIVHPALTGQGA

Kd [1]	Kd [2]	Substance
10 µM		Transhydrogenase domain III (second) domain III (from UniProt Q2RSB4)
	< 60 nM	Transhydrogenase domain III domain III (from UniProt Q2RSB4)
